The values below come from US20190367616A1.

In assay [1] the target is human PD-1 expressed on CHO-S cells (human) (UniProt Q15116). The assay is described as follows: flow cytometry PD-L1 blocking assay on CHO-S cells transiently expressing human PD-1; non-specific control antibody; ligand R-PE PD-L1-Fc (16.4 nM final).
Assay [2] has as its target cynomolgus PD-1 ECD (Acro Biosystems cat. no. PD1-05223) (cynomolgus) (UniProt B0LAJ3). Nature of the assay: SPR, antibody on sensor, monomeric PD-1 ECD in solution.

Chain of human PD-1 expressed on CHO-S cells (human) (Q15116 25-288): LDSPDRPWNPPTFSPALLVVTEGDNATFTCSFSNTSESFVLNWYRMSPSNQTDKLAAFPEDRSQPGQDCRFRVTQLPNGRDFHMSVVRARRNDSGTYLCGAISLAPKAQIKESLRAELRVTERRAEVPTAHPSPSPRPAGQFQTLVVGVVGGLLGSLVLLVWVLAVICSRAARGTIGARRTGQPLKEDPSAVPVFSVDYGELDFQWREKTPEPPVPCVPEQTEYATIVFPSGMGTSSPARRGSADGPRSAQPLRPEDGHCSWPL
Chain of cynomolgus PD-1 ECD (Acro Biosystems cat. no. PD1-05223) (cynomolgus) (B0LAJ3 entry or part of it limits assumed): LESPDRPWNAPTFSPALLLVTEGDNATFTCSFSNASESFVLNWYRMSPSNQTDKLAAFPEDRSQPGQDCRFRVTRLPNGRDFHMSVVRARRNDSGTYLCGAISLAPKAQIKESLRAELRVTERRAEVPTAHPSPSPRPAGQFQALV

In assay [1], control mAb (antibody) gave a % of cells hu IgG binding negative / PD-L1 binding negative (lower left quadrant) of 66.5%; a % of cells hu IgG binding negative / PD-L1 binding positive (lower right quadrant) of 32.6%; a % of cells hu IgG binding positive / PD-L1 binding negative (upper left quadrant, 'blocking') of 0.28%.

On to nivolumab analogue (antibody), for which the Kd (in general, a measure of binding affinity in units of concentration) in assay [2] is 1.5 nM.

pembrolizumab/Keytruda (antibody) yielded a Kd in assay [2] of 3.6 nM.
